# B1: Repressor of RNA polymerase III transcription MAF1 (Saccharomyces cerevisiae), P41910 (parent)
# chain: MKFIDELDIERVNQTLNFETNDCKIVGSCDIFTTKAVASDRKLYKTIDQHLDTILQENENYNATLQQQLAAPETNQSPCSSPFYSNRRDSNSFWEQKRRISFSEYNSNNNTNNSNGNSSNNNNYSGPNGSSPATFPKSAKLNDQNLKELVSNYDSGSMSSSSLDSSSKNDERIRRRSSSSISSFKSGKSSNNNYSSGTATNNVNKRRKSSINERPSNLSLGPFGPINEPSSRKIFAYLIAILNASYPDHDFSSVEPTDFVKTSLKTFISKFENTLYSLGRQPEEWVWEVINSHMTLSDCVLFQYSPSNSFLEDEPGYLWNLIGFLYNRKRKRVAYLYLICSRLNSSTGEVEDALAKKPQGKLIIDDGSNEYEGEYDFTYDENVIDDKSDQEESLQ
# partner: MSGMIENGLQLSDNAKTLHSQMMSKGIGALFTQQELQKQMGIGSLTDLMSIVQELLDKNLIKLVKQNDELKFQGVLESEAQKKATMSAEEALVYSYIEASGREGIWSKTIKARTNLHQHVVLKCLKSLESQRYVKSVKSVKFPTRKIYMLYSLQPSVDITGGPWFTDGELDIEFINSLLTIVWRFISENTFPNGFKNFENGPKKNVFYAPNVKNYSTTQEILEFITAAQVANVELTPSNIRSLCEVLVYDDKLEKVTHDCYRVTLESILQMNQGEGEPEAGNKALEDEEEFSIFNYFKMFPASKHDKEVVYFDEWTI
# Variants of: B1
# Details: with rpc6_yeast RPC34, P32910
row,effect of a mutation on the interaction,Variant
1,with no effect,L318S;W319S
2,with no effect,T33E;T34E
3,disrupting interaction strength,D248A;D250A

# Reference: IntAct's records for PubMed 32066962
